Source: the supplement of paper PMC10724198
± gives the standard deviation of the averaged measurements.

test system: Saccharomyces cerevisiae; test: protein stability index of tFT-peptide fusion (C-terminal peptide) (PSI (0-1 scale)); higher = more stable (slower turnover); conditions: genetic background: wild type; temperature: 30 C
Experimental: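 Multiplexed protein stability (MPS) profiling in S. cerevisiae. Random 12-aa peptides (tFT-X12 library) are fused to the C-terminus of a sfGFP-mCherry tandem fluorescent timer, after mCherry and a GGGS linker. Cells are FACS-sorted into 8 mCherry/sfGFP bins and deep-sequenced. The protein stability index (PSI) is the read-weighted bin average, scaled from 0 (unstable) to 1 (stable). Only peptides with >10 reads are reported; cells were grown at 30 °C in SC-His with glucose.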
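Further: PSI is a weighted mean of sequencing reads over stability bins, variants kept only with over 10 reads, mCherry proximal and sfGFP distal, peptide attached via GGGS linker.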

In order of falling protein stability index:
1. PPSNASFSSPPH  0.824 ± 0.035
2. YGWGVWFIGLGG  0.794 ± 0.095
3. SGNALSGVIRNC  0.783 ± 0.045
4. RTPQPQPVVVRR  0.776 ± 0.041
5. PARLPSPSHPAS  0.776 ± 0.063
6. LSPVSPRPLLPV  0.773 ± 0.12
7. PPPPPPPPPHSP  0.769 ± 0.01
8. GTTHRSKRLRRK  0.768 ± 0.035
9. FGDTYICKPFWG  0.765 ± 0.033
10. PSFPPLLSSSSI  0.763 ± 0.11
11. PPWPPQVALPPT  0.762 ± 0.068
12. KQKKNKNNHRKK  0.761 ± 0.024
13. KKKGWAKEKLKR  0.75 ± 0.051
14. PFPRPLSPLPFR  0.75 ± 0.074
15. LLPVLGFPLPFD  0.75 ± 0.065
16. RGKEREGGRQER  0.746 ± 0.045
17. GRYDARNYIRGK  0.745 ± 0.14
18. PVSVALASGSLF  0.744 ± 0.1
19. LILLLTPPVIHH  0.743 ± 0.051
20. QKKKKKSKQRGP  0.743 ± 0.034
21. PPRPQPPGSSFS  0.741 ± 0.012
22. QIGTVDEWTQQA  0.738 ± 0.12
23. RLPRSPLHPSVP  0.738 ± 0.016
24. PSHFSPPSAPPP  0.738 ± 0.055
25. QSSGGSDSVLFG  0.738 ± 0.041
26. SRVYRSCKNVKR  0.7383 ± 0.0069
27. WGGGRGLRVVGG  0.733 ± 0.092
28. VLAGFVLNDWVP  0.731 ± 0.023
29. PRLARSASLDSP  0.731 ± 0.08
30. GLRENIFTDKKN  0.728 ± 0.06
31. WGPGGRRGVGHV  0.727 ± 0.058
32. VLWLGSFKSPRR  0.727 ± 0.022
33. PLCRPARPRHHS  0.7256 ± 0.0015
34. YSDHFFQICGSF  0.726 ± 0.0065
35. LGRPLLYALFFP  0.724 ± 0.048
36. GLPLPTPLLPSP  0.723 ± 0.01
37. VRSRRQLPPADP  0.723 ± 0.083
38. PDDGLSAPPAAF  0.722 ± 0.14
39. LSHSSPLFSPLV  0.72 ± 0.0077
40. PDRPPVARATRP  0.719 ± 0.017
41. LLHAGVCSVSFL  0.718 ± 0.038
42. SFYSSPTVPFLP  0.717 ± 0.044
43. RKIRIDKQRKVK  0.716 ± 0.033
44. PPHPPPPLLPAP  0.715 ± 0.051
45. DSGTIWFPTHFV  0.7151 ± 0.0044
46. GWLGGGVRLGRL  0.714 ± 0.067
47. SRTLPPPSPGLH  0.714 ± 0.013
48. IAGMFSLKFGVP  0.714 ± 0.082
49. QLRDNQNTLLQE  0.7138 ± 0.006
50. GRDTVARSEGDR  0.712 ± 0.037
51. LICQNPVADPRT  0.711 ± 0.042
52. ALSPSLWCYFPT  0.71 ± 0.029
53. SIRGNGCVVCGT  0.708 ± 0.093
54. KLKIMEDQGKKK  0.706 ± 0.12
55. PFPSIPLPPPSR  0.703 ± 0.03
56. WVGPGGAVENKV  0.7013 ± 0.0032
57. QNQVERREFRFS  0.701 ± 0.088
58. PPPLSPPRPPRH  0.701 ± 0.022
59. QYDHGSSPRRFE  0.7005 ± 0.0041
60. PPPPSRPPPAPR  0.701 ± 0.053
61. CFEGPSSRRYFV  0.699 ± 0.083
62. FLLPQLFVSSSF  0.699 ± 0.035
63. PHPPGFGPGRTL  0.698 ± 0.068
64. ASRWGYSATTVG  0.697 ± 0.026
65. VRDRTSRGMRPA  0.6945 ± 0.0043
66. FTSPLPPVAPPL  0.693 ± 0.03
67. GVGWWLGLGVIW  0.692 ± 0.029
68. SRELPPPLLRSS  0.692 ± 0.072
69. APPPAPSPPLAP  0.69 ± 0.027
70. DKLLTYTLGARI  0.69 ± 0.016
71. PLVSPPPLPHRP  0.69 ± 0.02
72. THYSTQPKSTKC  0.689 ± 0.027
73. AAIARRNIFKAR  0.689 ± 0.039
74. AFPAQSLRLRCE  0.688 ± 0.049
75. RGGSGGRKCLGV  0.687 ± 0.0094
76. MNFCLGVFVDLA  0.6857 ± 0.0037
77. TRVKRQFRRGGI  0.686 ± 0.011
78. AAGSVFAEGYTG  0.686 ± 0.042
79. SGPGGWNREVGR  0.6841 ± 0.0024
80. FYRWDTFRWTRG  0.683 ± 0.01
81. RRERKARREAPR  0.682 ± 0.042
82. PKLAELKKISDR  0.68 ± 0.063
83. LPPFPLPPPLLS  0.68 ± 0.1
84. PHPERLLCPPYP  0.68 ± 0.024
85. GTVWQSNSGAAT  0.68 ± 0.028
86. HVDGGAVLLEGQ  0.67888 ± 0.00049
87. ARSALFRCGSIA  0.678 ± 0.02
88. LPRNQPVPFPCH  0.677 ± 0.0094
89. WAIPSSPQYKRA  0.676 ± 0.031
90. AHPPSPPPTRRP  0.676 ± 0.0079
91. VAFLSSADLLPP  0.676 ± 0.056
92. QQKKPKKEKTTE  0.6744 ± 0.0036
93. STSIRHGLHSVE  0.673 ± 0.05
94. SPSLSFPGIPLF  0.673 ± 0.052
95. RIINRIDNKIEK  0.672 ± 0.0039
96. TIKSATLVSFST  0.671 ± 0.072
97. EGRPGGVGEGSQ  0.671 ± 0.011
98. TLVSCRLVPSSR  0.671 ± 0.056
99. RRPTKGGPPTLC  0.67 ± 0.032
100. ACLPRARLRFHV  0.669 ± 0.027
101. APVSLHVPPCSR  0.669 ± 0.026
102. RRRSGGVIWNRV  0.669 ± 0.009
103. SKRRLTGYRKTK  0.669 ± 0.052
104. DVCFIRRRYKKI  0.669 ± 0.041
105. SRFAGVGGGGAR  0.667 ± 0.0071
106. PSDPTPSVPPIV  0.6647 ± 0.001
107. APSGPFLFIMNA  0.663 ± 0.047
108. FYPSRVPPLQSA  0.662 ± 0.056
109. GLDSGVAGRRGV  0.662 ± 0.0087
110. PLPPSPYPSPSP  0.661 ± 0.028
111. RVYGSFFYVSLL  0.66 ± 0.13
112. VPWGGLRFRDWW  0.659 ± 0.099
113. HPSAVPHPPDIV  0.659 ± 0.046
114. PPRPPRFFLLPP  0.6586 ± 0.0061
115. AGSFGCREAVCP  0.658 ± 0.044
116. PPGPPIAPLFPP  0.657 ± 0.0071
117. DTIQFLQCYRPI  0.655 ± 0.035
118. VVCLGGGVLPRV  0.654 ± 0.081
119. PPPPVPPPALPL  0.644 ± 0.045
120. KEDLGGMVSGGR  0.644 ± 0.009
121. SRFRSGVAALPS  0.644 ± 0.033
122. TLGYLPLRSLKI  0.641 ± 0.046
123. RVGLGGRPSGGW  0.64 ± 0.047
124. QFTRSRSRRVRS  0.6385 ± 0.0048
125. PPHAPLPPPTPP  0.634 ± 0.037
126. GAVARFRPCWPL  0.633 ± 0.011
127. RLFLSFVDRRSL  0.629 ± 0.06
128. LPTASLLPPPPP  0.626 ± 0.078
129. PRSPPPPPPLPP  0.626 ± 0.019
130. SPRNIVFQPLSP  0.622 ± 0.069
131. SCKLSPLGLLLL  0.618 ± 0.016
132. LRKTNQKIRSFK  0.614 ± 0.037
133. STCFPSIVRLGP  0.612 ± 0.05
134. GGRCGREGGAER  0.61 ± 0.054
135. GFGFLQIVSGWL  0.608 ± 0.067
136. GWVFCLFPVGGL  0.607 ± 0.051
137. VRGGGRRACVVG  0.607 ± 0.05
138. RLHFSSPLLHPP  0.601 ± 0.041
139. CLPPSSIVPFIS  0.59 ± 0.024
140. SYVLLLYTGCRM  0.585 ± 0.02
141. SHILPCTCPLAA  0.574 ± 0.044
142. SRGSMLRRPLFV  0.571
143. LGLCQVLFSFRV  0.56816 ± 0.00044
144. QVCSRKKCDSRK  0.567 ± 0.069
145. VLFATLHVMALK  0.55 ± 0.026
146. CFPLSPSCIFLR  0.464 ± 0.077
